Source: US20220348894, “DNA MODIFYING ENZYMES AND ACTIVE FRAGMENTS AND VARIANTS THEREOF AND METHODS OF USE” (LifeEDIT Therapeutics, Inc., published 2022)

Experiments:
Details in all cases: tags: SV40 NLS, 3xFLAG, nucleoplasmin NLS
LPG50148-nAPG07433.1 = LPG50148-nAPG07433.1 (synthetic); assay: cell_activity; mutated reads, HEK293FT; PAM 3' of target
Description: (§1) 500 ng of plasmid comprising an expression cassette comprising a coding sequence for a fusion protein shown in Table 10 and 500 ng of plasmid comprising an expression cassette encoding for an sgRNA shown in Table 11 were co-transfected into HEK293FT cells at 75-90% confluency in 24-well plates using Lipofectamine 2000 reagent (Life Technologies). Cells were then incubated at 37° C. for 72 h. Following incubation, genomic DNA was then extracted using NucleoSpin 96 Tissue (Macherey-Nagel) following the manufacturer's protocol. The genomic region flanking the targeted genomic site was PCR amplified using the primers in Table 11 and products were purified using ZR-96 DNA Clean and Concentrator (Zymo Research) following the manufacturer's protocol. The purified PCR products underwent Next Generation Sequencing on Illumina MiSeq. Typically, 100,000 of 250 bp paired-end reads (2×100,000 reads) are generated per amplicon. The reads were analyzed using CRISPResso (Pinello, et al. 2016 Nature Biotech, 34:695-697) to calculate the rates of editing. Output alignments were analyzed for INDEL formation or introduction of specific adenine mutations.
(§2) The editing rate for adenines within or proximal to the target sequence is indicated. “A5” indicates, for example, an adenine at position 5 of the target sequence. The position of each nucleotide in the target sequence was determined by numbering the first nucleotide in the target sequence closest to the PAM (which is 3′ of the target for APG07433.1) as position 1, and the position number increases in the 5′ direction away from the PAM sequence. The tables also show which nucleotide the adenine was changed to, and at what rate.

LPG50140-nAPG07433.1 = LPG50140-nAPG07433.1 (synthetic); assay: as above
Description: as §1, §2

LPG50159-nAPG07433.1 = LPG50159-nAPG07433.1 (synthetic); assay: cell_activity; mutated reads, HEK293FT
Description: as §1, §2

LPG50167-nAPG07433.1 = LPG50167-nAPG07433.1 (synthetic); assay: cell_activity; mutated reads, HEK293FT
Description: as §1, §2

LPG50155-nAPG07433.1 = LPG50155-nAPG07433.1 (synthetic); assay: cell_activity; mutated reads, HEK293FT
Description: as §1, §2

LPG50146-nAPG07433.1 = LPG50146-nAPG07433.1 (synthetic); assay: cell_activity; mutated reads, HEK293FT
Description: as §1, §2

LPG50178-nAPG07433.1 = LPG50178-nAPG07433.1 (synthetic); assay: cell_activity; mutated reads, HEK293FT
Description: as §1, §2

LPG50145-nAPG07433.1 = LPG50145-nAPG07433.1 (synthetic); assay: cell_activity; mutated reads, HEK293FT
Description: as §1, §2

LPG50170-nAPG07433.1 = LPG50170-nAPG07433.1 (synthetic); assay: cell_activity; mutated reads, HEK293FT
Description: as §1, §2

LPG50165-nAPG07433.1 = LPG50165-nAPG07433.1 (synthetic); assay: cell_activity; mutated reads, HEK293FT
Description: as §1, §2

LPG50166-nAPG07433.1 = LPG50166-nAPG07433.1 (synthetic); assay: cell_activity; mutated reads, HEK293FT
Description: as §1, §2

LPG50174-nAPG07433.1 = LPG50174-nAPG07433.1 (synthetic); assay: cell_activity; mutated reads, HEK293FT
Description: as §1, §2

LPG50181-nAPG07433.1 = LPG50181-nAPG07433.1 (synthetic); assay: cell_activity; mutated reads, HEK293FT
Description: as §1, §2

LPG50182-nAPG07433.1 = LPG50182-nAPG07433.1 (synthetic); assay: cell_activity; mutated reads, HEK293FT
Description: as §1, §2

LPG50149-nAPG07433.1 = LPG50149-nAPG07433.1 (synthetic); assay: cell_activity; mutated reads, HEK293FT
Description: as §1, §2

LPG50160-nAPG07433.1 = LPG50160-nAPG07433.1 (synthetic); assay: cell_activity; mutated reads, HEK293FT
Description: as §1, §2

LPG50152-nAPG07433.1 = LPG50152-nAPG07433.1 (synthetic); assay: cell_activity; mutated reads, HEK293FT
Description: as §1, §2

LPG50175-nAPG07433.1 = LPG50175-nAPG07433.1 (synthetic); assay: cell_activity; mutated reads, HEK293FT
Description: as §1, §2

LPG50158-nAPG07433.1 = LPG50158-nAPG07433.1 (synthetic); assay: cell_activity; mutated reads, HEK293FT
Description: as §1, §2

LPG50157-nAPG07433.1 = LPG50157-nAPG07433.1 (synthetic); assay: cell_activity; mutated reads, HEK293FT
Description: as §1, §2

LPG50141-nAPG07433.1 = LPG50141-nAPG07433.1 (synthetic); assay: cell_activity; mutated reads, HEK293FT
Description: as §1, §2

LPG50147-nAPG07433.1 = LPG50147-nAPG07433.1 (synthetic); assay: cell_activity; mutated reads, HEK293FT
Description: as §1, §2

LPG50163-nAPG07433.1 = LPG50163-nAPG07433.1 (synthetic); assay: cell_activity; mutated reads, HEK293FT
Description: as §1, §2

LPG50143-nAPG07433.1 = LPG50143-nAPG07433.1 (synthetic); assay: cell_activity; mutated reads, HEK293FT
Description: as §1, §2

LPG50156-nAPG07433.1 = LPG50156-nAPG07433.1 (synthetic); assay: cell_activity; mutated reads, HEK293FT
Description: as §1, §2

LPG50177-nAPG07433.1 = LPG50177-nAPG07433.1 (synthetic); assay: cell_activity; mutated reads, HEK293FT
Description: as §1, §2

LPG50173-nAPG07433.1 = LPG50173-nAPG07433.1 (synthetic); assay: cell_activity; mutated reads, HEK293FT
Description: as §1, §2

LPG50168-nAPG07433.1 = LPG50168-nAPG07433.1 (synthetic); assay: cell_activity; mutated reads, HEK293FT
Description: as §1, §2

LPG50142-nAPG07433.1 = LPG50142-nAPG07433.1 (synthetic); assay: cell_activity; mutated reads, HEK293FT
Description: as §1, §2

LPG50150-nAPG07433.1 = LPG50150-nAPG07433.1 (synthetic); assay: cell_activity; mutated reads, HEK293FT
Description: as §1, §2

LPG50179-nAPG07433.1 = LPG50179-nAPG07433.1 (synthetic); assay: cell_activity; mutated reads, HEK293FT
Description: as §1, §2

LPG50176-nAPG07433.1 = LPG50176-nAPG07433.1 (synthetic); assay: cell_activity; mutated reads, HEK293FT
Description: as §1, §2

LPG50144-nAPG07433.1 = LPG50144-nAPG07433.1 (synthetic); assay: cell_activity; mutated reads, HEK293FT
Description: as §1, §2

LPG50169-nAPG07433.1 = LPG50169-nAPG07433.1 (synthetic); assay: cell_activity; mutated reads, HEK293FT
Description: as §1, §2

LPG50171-nAPG07433.1 = LPG50171-nAPG07433.1 (synthetic); assay: cell_activity; mutated reads, HEK293FT
Description: as §1, §2

LPG50162-nAPG07433.1 = LPG50162-nAPG07433.1 (synthetic); assay: cell_activity; mutated reads, HEK293FT
Description: as §1, §2

LPG50151-nAPG07433.1 = LPG50151-nAPG07433.1 (synthetic); assay: cell_activity; mutated reads, HEK293FT
Description: as §1, §2

LPG50164-nAPG07433.1 = LPG50164-nAPG07433.1 (synthetic); assay: cell_activity; mutated reads, HEK293FT
Description: as §1, §2

B1: SGN000186 sgRNA (Table 11) ; SGN000186 target (Table 11) (ssRNA ; dsDNA)
RNA: GGACAGUGCGCAUCUCCCUGGUCAUAGUUCCAUUAAAGCCAAAAGUGGCUUUGAUGUUUCUAUGAUAAGGGUUUCGACCCGUGGCGUCGGGGAUCGCCUGCCCAUUGAAAUGGGCUUCUCCCCAUUUAUU
DNA 1: GGACAGTGCGCATCTCCCTG
DNA 2: CAGGGAGATGCGCACTGTCC
activity (LPG50148-nAPG07433.1): 32.6% | activity (LPG50140-nAPG07433.1): 18.8% | activity (LPG50159-nAPG07433.1): 6.99% | activity (LPG50167-nAPG07433.1): 8% | activity (LPG50155-nAPG07433.1): 17% | activity (LPG50146-nAPG07433.1): 17.8% | activity (LPG50178-nAPG07433.1): 12.9% | activity (LPG50145-nAPG07433.1): 9.93% | activity (LPG50170-nAPG07433.1): 12.2% | activity (LPG50165-nAPG07433.1): 9.88% | activity (LPG50166-nAPG07433.1): 8% | activity (LPG50174-nAPG07433.1): 8% | activity (LPG50181-nAPG07433.1): 12.6% | activity (LPG50182-nAPG07433.1): 9% | activity (LPG50149-nAPG07433.1): 22.1% | activity (LPG50160-nAPG07433.1): 16% | activity (LPG50152-nAPG07433.1): 18% | activity (LPG50175-nAPG07433.1): 14% | activity (LPG50158-nAPG07433.1): 4.91% | activity (LPG50157-nAPG07433.1): 12.2% | activity (LPG50141-nAPG07433.1): 9.79% | activity (LPG50147-nAPG07433.1): 12.6% | activity (LPG50163-nAPG07433.1): 10% | activity (LPG50143-nAPG07433.1): 10.6% | activity (LPG50156-nAPG07433.1): 12.7% | activity (LPG50177-nAPG07433.1): 11% | activity (LPG50173-nAPG07433.1): 7.88% | activity (LPG50168-nAPG07433.1): 7% | activity (LPG50142-nAPG07433.1): 14.1% | activity (LPG50150-nAPG07433.1): 23.7% | activity (LPG50179-nAPG07433.1): 12.5% | activity (LPG50176-nAPG07433.1): 7% | activity (LPG50144-nAPG07433.1): 12.2% | activity (LPG50169-nAPG07433.1): 13% | activity (LPG50171-nAPG07433.1): 12.7% | activity (LPG50162-nAPG07433.1): 14% | activity (LPG50151-nAPG07433.1): 7.76% | activity (LPG50164-nAPG07433.1): 7.38%
